Assay results reported in IntAct's records for PubMed 19955405.

B1: Serine/threonine-protein kinase SRK2E (Arabidopsis thaliana (Mouse-ear cress)), Q940H6 (parent)
chain: MDRPAVSGPMDLPIMHDSDRYELVKDIGSGNFGVARLMRDKQSNELVAVKYIERGEKIDENVKREIINHRSLRHPNIVRFKEVILTPTHLAIVMEYASGGELFERICNAGRFSEDEARFFFQQLISGVSYCHAMQVCHRDLKLENTLLDGSPAPRLKICDFGYSKSSVLHSQPKSTVGTPAYIAPEVLLKKEYDGKVADVWSCGVTLYVMLVGAYPFEDPEEPKNFRKTIHRILNVQYAIPDYVHISPECRHLISRIFVADPAKRISIPEIRNHEWFLKNLPADLMNDNTMTTQFDESDQPGQSIEEIMQIIAEATVPPAGTQNLNHYLTGSLDIDDDMEEDLESDLDDLDIDSSGEIVYAM
partner: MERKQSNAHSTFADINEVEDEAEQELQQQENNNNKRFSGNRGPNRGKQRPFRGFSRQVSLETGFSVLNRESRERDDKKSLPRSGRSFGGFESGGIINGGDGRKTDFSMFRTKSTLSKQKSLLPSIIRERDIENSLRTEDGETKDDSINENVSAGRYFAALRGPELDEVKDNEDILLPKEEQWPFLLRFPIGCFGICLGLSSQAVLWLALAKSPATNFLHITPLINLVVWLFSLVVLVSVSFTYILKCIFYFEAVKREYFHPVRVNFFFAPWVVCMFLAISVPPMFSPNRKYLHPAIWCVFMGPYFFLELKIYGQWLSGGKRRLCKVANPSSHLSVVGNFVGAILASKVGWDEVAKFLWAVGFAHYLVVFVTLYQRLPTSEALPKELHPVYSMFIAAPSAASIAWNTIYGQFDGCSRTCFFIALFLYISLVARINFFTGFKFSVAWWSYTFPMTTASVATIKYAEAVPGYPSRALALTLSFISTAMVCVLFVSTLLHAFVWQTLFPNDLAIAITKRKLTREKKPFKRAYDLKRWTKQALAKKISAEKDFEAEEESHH

Variants of: B1
Conditions: with slac1_arath SLAC1, Q9LD83

Variant | effect of a mutation on the interaction
MDRPAVSGPMDLPIMHDSDRYELVKDIGSGNFGVARLMRDKQSNELVAVKYIERGEKIDENVKREIINHRSLRHPNIVRFKEVILTPTHLAIVMEYASGGELFERICNAGRFSEDEARFFFQQLISGVSYCHAMQVCHRALKLENTLLDGSPAPRLKICDFGYSKSSVLHSQPKSTVGTPAYIAPEVLLKKEYDGKVADVWSCGVTLYVMLVGAYPFEDPEEPKNFRKTIHRILNVQYAIPDYVHISPECRHLISRIFVADPAKRISIPEIRNHEWFLKNLPADLMNDNTMTTQFDESDQPGQSIEEIMQIIAEATVPPAGTQNLNHYLTGSLDIDDDMEEDLESDLDDLDIDSSGEIVYAM [D140A] | disrupting interaction
